{
  "source": "patent US10413588B2",
  "about": "“Probiotic function of human intelectin” (Wisconsin Alumni Research Foundation, priority 2015, dated 2019)",
  "key": {"[1]": {"assay": "hIntL-1 carbohydrate binding ELISA-like assay"}, "[2]": {"assay": "hIntL-1 carbohydrate binding ELISA-like assay", "protocol": "(§1) To fabricate carbohydrate-displaying surfaces, 0.5 μg of streptavidin (Prozyme, cat. no. SA20) was adsorbed onto a Maxisorp (Nunc) flat bottom 96 well plate in PBS. Wells were washed with PBS and then coated with 5 μM of carbohydrate-biotin ligand in PBS for 1 hour at 22° C. Wells were blocked with bovine serum albumin (BSA) in ELISA buffer (20 mM HEPES (7.4) 150 mM NaCl, 10 mM CaCl2, and 0.1% tween-20). Samples containing hIntL-1 were prepared by serial dilution into ELISA buffer+0.1% BSA and added to wells for 2 hours at 22° C. Wells were washed four times with ELISA buffer. Bound hIntL-1 was detected using 0.75 μg/mL of a sheep IgG hIntL-1 antibody (R&D Systems, cat. no. AF4254) in ELISA buffer+0.1% BSA for 2 hours at 22° C. Wells were washed with ELISA buffer. A donkey anti-sheep IgG horseradish peroxidase (HRP) conjugate (Jackson ImmunoResearch Laboratories) was added at a 1:5,000 dilution in ELISA buffer+0.1% BSA for 1 hour at 22° C. Wells were washed and hIntL-1 was detected colorimetrically with addition of 1-Step Ultra TMB-ELISA (Pierce). Once sufficient signal was achieved (typically <2 min.), the reaction was quenched with addition of equal volume 2 M H2SO4. Plates were read at 450 nm on an ELx800 plate reader (Bio-Tek). When testing the Ca^2+ dependency of hIntL-1, 1 mM EDTA replaced 10 mM CaCl2 in all steps. Data were analyzed on Prism6 (GraphPad). […]", "remark": "listed apart in the source"}, "[3]": {"assay": "hIntL-1 surface plasmon resonance (SPR)", "type": "binding", "protocol": "All hIntL-1 SPR was performed on a ProteOn XPR36 (Bio-Rad) at the University of Wisconsin-Madison Department of Biochemistry Biophysics Instrumentation Facility (BIF). To measure hIntL-1 binding, ProteOn NLC sensor chips (Bio-Rad) (NeutrAvidin coated chips) were used to capture carbohydrate-biotin ligand. All experiments presented here were conducted at surface saturated levels of ligand, ˜200 RU. In all experiments, captured biotin served as a control. Samples containing purified hIntL-1 were prepared by serial dilution into hIntL-1 SPR running buffer (20 mM HEPES (7.4) 150 mM NaCl, 1 mM CaCl2, and 0.005% tween-20). Surfaces were regenerated with short injections of 10 mM HCl. All data was interspot corrected and processed using the Bio-Rad ProteOn software package."}, "[4]": {"assay": "CFG mammalian glycan array v5.1", "type": "binding", "settings": "hIntL-1 at 50 and 200 μg/ml"}, "[5]": {"assay": "Microbial Glycan Microarray (MGMv2)", "type": "binding, Salmonella enterica", "settings": "Strep-hIntL-1 50 μg/mL; terminal α-Galf residue", "protocol": "Strep-hIntL-1 was used to interrogate the Microbial Glycan Microarray version 2 (MGMv2). Construction of the MGMv2 is previously described. Briefly, bacterial polysaccharide samples were dissolved and diluted to 0.5 mg/mL in printing buffer (150 mM sodium phosphate buffer (8.4)+0.005% Tween-20). Samples were immobilized on NETS-activated glass slides (SlideH, Schott/Nexterion) using a MicroGrid II (Digilab) contact microarray printer equipped with SMP-4B printing pins (Telechem). Six replicates of each bacterial glycan sample were printed. Covalent coupling of glycans to the surface was facilitated by incubation for 1 hour postprint at 100% relative humidity. The remaining reactive NHS-moieties were quenched using a blocking solution (50 mM ethanolamine in 50 mM borate buffer (9.2)). Blocked slides were stored at −20° C. until assays were performed. […] The Strep-Tag® II on bound hIntL-1 was detected using StrepMAB-Classic Chromeo647 (10 μg/mL, IBA GmbH Lifesciences) diluted in binding buffer applied directly to the array surface and allowed to incubate for 1 hour. […] Signal data was calculated as the average of 4 values after removing the high and low values of the 6 replicates. Data were plotted using Excel (Microsoft) as average Relative Fluorescence Units (RFU) versus print identification number. […]"}, "[6]": {"assay": "hIntL-1 carbohydrate binding ELISA-like assay", "settings": "ligands other than β-Galf", "protocol": "as §1"}},
  "note": "Entries after “also recorded” stand apart in the source; their conditions may differ.",
  "data": [
    {"molecule": "hIntL-1: human lectin intelectin-1, accession no. Q8WWA0; recombinant disulfide-linked trimer from HEK 293T cells, used also N-terminally Strep-tagged (Strep-hIntL-1) (protein, listed as Homo sapiens) MNQLSFLLFLIATTRGWSTDEANTYFKEWTCSSSPSLPRSCKEIKDECPSAFDGLYFLRTENGVIYQTFCDMTSGGGGWTLVASVHENDMRGKCTVGDRWSSQQGSKAVYPEGDGNWANYNTFGSAEAATSDDYKNPGYYDIQAKDLGIWHVPNKSPMQHWRNSSLLRYRTDTGFLQTLGHNLFGIYQKYPVKYGEGKCWTDNGPVIPVVYDFGDAQKTASYYSPYGQREFTAGFVQFRVFNNERAANALCAGMRVTGCNTEHHCIGGGGYFPEASPQQCGDFSGFDWSGYGTHVGYSSSREITEAAVLLFYR", "values": [
      {"measurement": "binding to β-Galf on addition of EDTA", "setting": "[1]; hIntL-1 conditioned HEK culture media, addition of 25 mM EDTA", "value": "completely abolished binding"},
      {"measurement": "Kd", "setting": "[1]; trimeric hIntL-1, ELISA-like assay, 10 mM CaCl2, read-out: avidity (apparent Kd) for immobilized β-Galf", "value": "85 ± 14", "unit": "nM"},
      {"measurement": "binding to immobilized α-Neu5Ac", "setting": "[2]", "value": "lack of affinity; also recorded: does not bind"},
      {"measurement": "SPR response to immobilized β-galactopyranose", "setting": "[3]; attributed to the extended anomeric alkyl linker", "value": "small response"},
      {"measurement": "binding to immobilized β-Galf by SPR", "setting": "[3]; immobilized carbohydrate-biotin ligand, 1 mM CaCl2", "value": "robust binding"},
      {"measurement": "binding to human glycan ligands on CFG mammalian glycan array", "setting": "[4]", "value": "none are bound by hIntL-1 with appreciable affinity"},
      {"measurement": "signal on microbial glycan array", "setting": "[5]", "value": 66, "unit": "RFU"},
      {"measurement": "binding to other immobilized carbohydrate ligands", "setting": "[6]", "value": "not detected"}
    ]}
  ]
}
